Measurements as given in paper doi:10.1101/609503.

Biological target: MepS (E. coli) (UniProt P0AFV4)
Assay: MST

Sequence of MepS (E. coli) (P0AFV4 27-188): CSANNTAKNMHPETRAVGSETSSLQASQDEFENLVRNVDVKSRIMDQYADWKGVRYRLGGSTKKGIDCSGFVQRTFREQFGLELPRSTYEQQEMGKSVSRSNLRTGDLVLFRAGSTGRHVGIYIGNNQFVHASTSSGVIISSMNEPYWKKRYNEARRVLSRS

- Kd: 145 nM
Substance: NlpI (soluble version, residues 19-294) (from UniProt P0AFB1 19-294) (natural protein)
